The target in this assay is ParA (pMF1.22) co-expressed with ParC from pET15b (Myxococcus fulvus 124B02 (plasmid pMF1)). Put plainly: SDS-PAGE band identified by mass spectrometry.

This passage reports stoichiometry N (ParC:ParA molar ratio) results from article doi:10.1101/2020.07.24.219303.

“ParC (pMF1.21) co-expressed in front of ParA from pET15b (natural protein)”: the stoichiometry N (ParC:ParA molar ratio) came out at 1.
